From patent publication US20210347873A1 (SHANGHAI PHARMAEXPLORER, published 2021)

Tests used:
mouse BLyS protein = mouse BLyS protein (mouse, UniProt Q9WU72 69-309); assay: cell-based or functional assay
[1] = target: T1, human BLyS (full length, arginine to histidine at position 132) on CHO-K1 cells (human, UniProt Q9Y275 1-285); assay: flow cytometry, CHO-K1 hBLyS cells, antibody 0 nM
T1 construct: also called hBLyS; CHO-K1 hBLyS

[2] = target: T1, human BLyS (full length, arginine to …); assay: flow cytometry, CHO-K1 hBLyS cells, antibody 0.107 nM
[3] = target: T1, human BLyS (full length, arginine to …); assay: flow cytometry, CHO-K1 hBLyS cells, antibody 0.534 nM
[4] = target: T1, human BLyS (full length, arginine to …); assay: flow cytometry, CHO-K1 hBLyS cells, antibody 0.00427 nM
[5] = target: T2, cynomolgus BLyS (full length, arginine to histidine at position 132) on CHO-K1 cells (cynomolgus, UniProt Q9Y275 1-285 (human entry)); assay: flow cytometry, CHO-K1 cynoBLyS cells, antibody 0.00427 nM
T2 construct: also called cyno BLyS; CHO-K1 cynoBLyS
T2 chain: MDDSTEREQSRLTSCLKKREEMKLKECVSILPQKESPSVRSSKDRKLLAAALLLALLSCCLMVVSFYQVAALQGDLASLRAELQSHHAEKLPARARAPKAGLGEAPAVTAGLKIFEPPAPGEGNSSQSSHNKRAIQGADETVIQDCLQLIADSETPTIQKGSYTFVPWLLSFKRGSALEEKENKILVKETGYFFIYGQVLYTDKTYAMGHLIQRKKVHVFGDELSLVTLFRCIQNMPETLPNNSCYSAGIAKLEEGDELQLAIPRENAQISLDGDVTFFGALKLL

T1 sequence (Q9Y275 whole entry R130H): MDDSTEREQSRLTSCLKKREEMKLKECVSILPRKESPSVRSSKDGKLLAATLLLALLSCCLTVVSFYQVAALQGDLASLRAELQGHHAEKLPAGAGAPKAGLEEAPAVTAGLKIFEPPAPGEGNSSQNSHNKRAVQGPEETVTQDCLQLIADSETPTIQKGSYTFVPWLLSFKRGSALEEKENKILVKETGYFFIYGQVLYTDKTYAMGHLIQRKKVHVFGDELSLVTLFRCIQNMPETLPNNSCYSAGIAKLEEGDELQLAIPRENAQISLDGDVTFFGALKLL
Chain of mouse BLyS protein (Q9WU72 69-309): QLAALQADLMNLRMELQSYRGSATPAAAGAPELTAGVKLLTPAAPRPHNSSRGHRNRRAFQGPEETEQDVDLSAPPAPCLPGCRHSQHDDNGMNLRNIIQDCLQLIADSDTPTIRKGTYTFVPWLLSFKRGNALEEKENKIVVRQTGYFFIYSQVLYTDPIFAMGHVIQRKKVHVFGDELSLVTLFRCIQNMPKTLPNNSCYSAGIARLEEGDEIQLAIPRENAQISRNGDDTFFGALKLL

| Binder | mouse B lymphocyte proliferation (OD450 nm), antibody 0 nM (mouse BLyS protein) | mouse B lymphocyte proliferation (OD450 nm), antibody 0.000256 nM (mouse BLyS protein) | mouse B lymphocyte proliferation (OD450 nm), antibody 0.00128 nM (mouse BLyS protein) | mouse B lymphocyte proliferation (OD450 nm), antibody 0.0064 nM (mouse BLyS protein) | mouse B lymphocyte proliferation (OD450 nm), antibody 0.032 nM (mouse BLyS protein) | mouse B lymphocyte proliferation (OD450 nm), antibody 0.16 nM (mouse BLyS protein) | mouse B lymphocyte proliferation (OD450 nm), antibody 0.8 nM (mouse BLyS protein) | mouse B lymphocyte proliferation (OD450 nm), antibody 4 nM (mouse BLyS protein) | mouse B lymphocyte proliferation (OD450 nm), antibody 20 nM (mouse BLyS protein) | mouse B lymphocyte proliferation (OD450 nm), antibody 100 nM (mouse BLyS protein) | MFI [1] | MFI [2] | MFI [3] | MFI [4] | MFI [5] |
| --- | --- | --- | --- | --- | --- | --- | --- | --- | --- | --- | --- | --- | --- | --- | --- |
| L1D12 (antibody, V domains shown, From a human naive scFv phage library; also called human BLyS antibody L1D12; LID12) VH: QVQLVQSGGGLVQPGGSLRLSCAASGFTVSSNYMSWVRQAPGKGLEWVSVIYSGGSTYYADSVKGRFTISRDNSKNTLYLQMNSLRAEDTAVYYCARGFHDILTGYGMDVWGQGTTVTVSS VL: SSELTQDPAVSVALGQTVRITCQGDSLRNYYAGWYQQKPGQAPVLVIYGKNNRPSGIPDRFSGSSSGNTASLTITGTQAEDEADYYCSSRDNSGTHLVEFGGGTKLTVL | 2340 OD450 nm | 2450 OD450 nm | 2610 OD450 nm | 2500 OD450 nm | 2460 OD450 nm | 2520 OD450 nm | 2410 OD450 nm | 2560 OD450 nm | 2460 OD450 nm | 2450 OD450 nm | 101 MFI | 205 MFI | 413 MFI | 54.4 MFI | 66.7 MFI |
| 2-1G11 (antibody, V domains shown, From a human naive scFv phage library; also called human BLyS antibody 2-1G11) VH: EVQLVESRGGVVQPGRSLRLSCAASGFTFSSYGMHWVRQAPGKGLEWVAVISYDGSNKYYADSVKGRFTISRDNSKNTLYLQMNSLRAEDAAVYYCARDRVDILTGYSIYGMDVWGQGTTVTVSS VL: EIVMTQSPATLSLSPGERATLSCRASQSVSSYLAWYQQKPGQAPRLLIYDASKRATGIPARFSGSGSGTDFTLTISSLEPEDFAVYYCQQRSNWPLTFGGGTKVEIK | 2320 OD450 nm | 2450 OD450 nm | 2560 OD450 nm | 2610 OD450 nm | 2470 OD450 nm | 2750 OD450 nm | 2820 OD450 nm | 2460 OD450 nm | 2680 OD450 nm | 2490 OD450 nm | 186 MFI | 403 MFI | 591 MFI | 107 MFI | 176 MFI |
| L9G7 (antibody, V domains shown, From a human naive scFv phage library; also called human BLyS antibody L9G7) VH: QIQLVQSGAEVKKPGASVKVSCKASGYTFTSYGISWVRQAPGQGLEWMGWISAYNGNTNYAQKLQGRVTMTTDTSTSTAYMELRSLRSDDTAVYYCARTYYDILTGYYYYGMDVWGQGTTVTVSS VL: EIVLTQSPGTLSLSPGERATLSCRTSQSVDTYLAWYQQKPGQAPRLLIYDASNRATGIPARFSGSGSGTDFTLTISSLEPEDFAVYYCQQRSNWPLTFGGGTKVEIK | 2100 OD450 nm | 2430 OD450 nm | 2480 OD450 nm | 2460 OD450 nm | 2340 OD450 nm | 2260 OD450 nm | 640 OD450 nm | 308 OD450 nm | 243 OD450 nm | 221 OD450 nm | 101 MFI | 226 MFI | 469 MFI | 51.6 MFI | 63.5 MFI |
